Laboratory results published in patent publication US20100261218A1.

Assays:
[1] = molecular target: N. punctiforme ATCC29133 PKS acyl carrier protein of nostopeptolide biosynthesis (NpACP)
[2] = molecular target: T1, Synechocystis sp. PCC6803 fatty acid synthesis acyl carrier protein (SACP), P20804
T1 chain: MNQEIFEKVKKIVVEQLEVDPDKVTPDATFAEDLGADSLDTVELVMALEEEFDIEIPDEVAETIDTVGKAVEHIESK

[3] = molecular target: N. punctiforme ATCC29133 PKS aryl carrier protein (ArCP) from HetM of glycolipid synthesis (NpArCP)
[4] = molecular target: Bacillus brevis ATCC8185 NRPS peptidyl carrier protein involved in tyrocidine biosynthesis (TycPCP)
[5] = molecular target: Nostoc punctiforme NRPS peptidyl carrier protein (Nppcp), C-terminal NosA PCP of the putative nostopeptolide cluster

B1: Synechocystis sp. PCC6803 phosphopantetheinyl transferase (Sppt) (protein)
chain: MLPQPQIWLCPTDRPLIPGYQALLSSEEMARGERYQRPQDKQRFLTMRLALRILLARQLDCLPQQLQFTYGPQGKPELVDRERRSPWFNVAHSGNYGLIGLSTEGEIGVDLQIMLPKPHYLKLAKRFFAPQEVQQLESLEGEKRTKLFYQLWTAKEAFLKATGKGISGGLNQVIPDENLAKYQYLPDSGDTNHWRLSSQPLLADQGSNDNYWMAIAWCTNEVNQVESNYLPNIQPFQWPRNLDSLP
[1]
  phosphopantetheinylation of the carrier protein (30 min in vitro assay, ESI-MS): Phosphopantetheinylated NpACP was not reproducibly detected after incubation with Sppt
[2]
  phosphopantetheinylation of the carrier protein (10 min in vitro assay, ESI-MS, +340 Da): After in vitro incubation with Sppt, SACP showed an increased abundance of phosphopantetheinylated carrier protein
[3]
  phosphopantetheinylation of the carrier protein (30 min in vitro assay, ESI-MS): Sppt was unable to phosphopantetheinylate the N. punctiforme ATCC29133 NpArCP as shown by mass spectrometry
[4]
  percent of carrier protein phosphopantetheinylated (30 min in vitro assay, ESI-MS): approximately 54% of the P. aeruginosa PAO1 NRPS TycPCP was phosphopantetheinylated by Sppt

B2: N. sp. heterocyst carrier protein synthase (NhcS), phosphopantetheinyl transferase from Nodularia spumigena NSOR10 (protein)
chain: MTALNHLWLPVPTNLTLLPNDVHIWRIHLDVPEAQQQNLLATLSGDELTRANRFHFQEHRQRFIAGRGILRSILGSYLGIEPQRVLFDYQERGKPILADSLAKSGLWFNLSHSQGLALCAVNYHNRIGIDLEYIRRMSDVEALAKRFFLPREYDVVRSLSDHQQQEIFFRYWTCKEAYLKATGEGLAQLEQVEVLLNPTEPAQLQTSESWSLFELRAAEDYFAAVVVEGSGCNLQCWQY
[5]
  pantetheinylation of the carrier protein (30 min in vitro assay, ESI-MS): Nppcp was pantetheinylated
[3]
  pantetheinylation of the carrier protein (30 min in vitro assay, ESI-MS): The conversion of the apo-ArCP (15.75 kDa) to the holo-ArCP (16.05 kDa) is seen
